Test results reported in paper PMC11177981 (2024).

B1: FLAG-GLUT4 (human full length) expressed in HEK293T cells [human] / retinoic acid inducible gene I (RIG-I), endogenous in HEK293T cells [human (endogenous in HEK293T)] (parent complex)
chain 1: MPSGFQQIGSEDGEPPQQRVTGTLVLAVFSAVLGSLQFGYNIGVINAPQKVIEQSYNETWLGRQGPEGPSSIPPGTLTTLWALSVAIFSVGGMISSFLIGIISQWLGRKRAMLVNNVLAVLGGSLMGLANAAASYEMLILGRFLIGAYSGLTSGLVPMYVGEIAPTHLRGALGTLNQLAIVIGILIAQVLGLESLLGTASLWPLLLGLTVLPALLQLVLLPFCPESPRYLYIIQNLEGPARKSLKRLTGWADVSGVLAELKDEKRKLERERPLSLLQLLGSRTHRQPLIIAVVLQLSQQLSGINAVFYYSTSIFETAGVGQPAYATIGAGVVNTVFTLVSVLLVERAGRRTLHLLGLAGMCGCAILMTVALLLLERVPAMSYVSIVAIFGFVAFFEIGPGPIPWFIVAELFSQGPRPAAMAVAGFSNWTSNFIIGMGFQYVAEAMGPYVFLLFAVLLLGFFIFTFLRVPETRGRTFDQISAAFHRTPSLLEQEVKPSTELEYLGPDEND
chain 2: MTTEQRRSLQAFQDYIRKTLDPTYILSYMAPWFREEEVQYIQAEKNNKGPMEAATLFLKFLLELQEEGWFRGFLDALDHAGYSGLYEAIESWDFKKIEKLEEYRLLLKRLQPEFKTRIIPTDIISDLSECLINQECEEILQICSTKGMMAGAEKLVECLLRSDKENWPKTLKLALEKERNKFSELWIVEKGIKDVETEDLEDKMETSDIQIFYQEDPECQNLSENSCPPSEVSDTNLYSPFKPRNYQLELALPAMKGKNTIICAPTGCGKTFVSLLICEHHLKKFPQGQKGKVVFFANQIPVYEQQKSVFSKYFERHGYRVTGISGATAENVPVEQIVENNDIIILTPQILVNNLKKGTIPSLSIFTLMIFDECHNTSKQHPYNMIMFNYLDQKLGGSSGPLPQVIGLTASVGVGDAKNTDEALDYICKLCASLDASVIATVKHNLEELEQVVYKPQKFFRKVESRISDKFKYIIAQLMRDTESLAKRICKDLENLSQIQNREFGTQKYEQWIVTVQKACMVFQMPDKDEESRICKALFLYTSHLRKYNDALIISEHARMKDALDYLKDFFSNVRAAGFDEIEQDLTQRFEEKLQELESVSRDPSNENPKLEDLCFILQEEYHLNPETITILFVKTRALVDALKNWIEGNPKLSFLKPGILTGRGKTNQNTGMTLPAQKCILDAFKASGDHNILIATSVADEGIDIAQCNLVILYEYVGNVIKMIQTRGRGRARGSKCFLLTSNAGVIEKEQINMYKEKMMNDSILRLQTWDEAVFREKILHIQTHEKFIRDSQEKPKPVPDKENKKLLCRKCKALACYTADVRVIEECHYTVLGDAFKECFVSRPHPKPKQFSSFEKRAKIFCARQNCSHDWGIHVKYKTFEIPVIKIESFVVEDIATGVQTLYSKWKDFHFEKIPFDPAEMSK

Variants of: B1
Assay: co-IP (IP: FLAG) with immunoblot band densitometry; HEK293T cells; FLAG-GLUT4 plasmids, endogenous RIG-I; Vector, pcDNA3.1-FLAG; read off a plot

Variant | response
chain 1 MPSGFQQIGSEDGEPPQQRVTGTLVLAVFSAVLGSLQFGYNIGVINAPQKVIEQSYNETWLGRQGPEGPSSIPPGTLTTLWALSVAIFSVGGMISSFLIGIISQWLGRKRAMLVNNVLAVLGGSLMGLANAAASYEMLILGRFLIGAYSGLTSGLVPMYVGEIAPTHLAGALGTLNQLAIVIGILIAQVLGLESLLGTASLWPLLLGLTVLPALLQLVLLPFCPESPRYLYIIQNLEGPARKSLKRLTGWADVSGVLAELKDEKRKLERERPLSLLQLLGSRTHRQPLIIAVVLQLSQQLSGINAVFYYSTSIFETAGVGQPAYATIGAGVVNTVFTLVSVLLVERAGRRTLHLLGLAGMCGCAILMTVALLLLERVPAMSYVSIVAIFGFVAFFEIGPGPIPWFIVAELFSQGPRPAAMAVAGFSNWTSNFIIGMGFQYVAEAMGPYVFLLFAVLLLGFFIFTFLRVPETRGRTFDQISAAFHRTPSLLEQEVKPSTELEYLGPDEND [chain 1 R169A] | ~1.1 band density ratio (RIG-I/GLUT4)
